Data as given in patent US20230293738A1 (Y MABS THERAPEUTICS, published 2023).
Values joined by “and” are separate entries in the source; they are usually repeats but may differ in a detail not shown here. Equal values may be shown once. Read-outs that look alike come from different tables or passages of the source.

Experiments:
[1] = target: T1, human 2Ig-B7H3 (B7H3-2Ig-His) (human, UniProt Q5ZPR3 29-466); assay: SPR, Biacore T200, 2Ig-B7H3-His on CM5 chip, 1:1 fit
T1 construct: Recombinant His-tagged protein immobilised on a CM5 chip; also called 21g-B7H3; B7H3-21g-His; not shown: His tag
T1 sequence: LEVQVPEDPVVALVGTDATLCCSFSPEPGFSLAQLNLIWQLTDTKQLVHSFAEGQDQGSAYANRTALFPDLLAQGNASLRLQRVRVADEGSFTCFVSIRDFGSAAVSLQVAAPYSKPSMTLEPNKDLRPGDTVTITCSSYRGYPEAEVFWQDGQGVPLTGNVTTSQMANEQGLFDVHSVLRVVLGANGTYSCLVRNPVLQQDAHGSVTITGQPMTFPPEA
Procedure: (§1) Both human B7H3 41g and 21g proteins were dissolved in PBS (Phosphate-Buffered Saline) to make 0.1 mg/ml stock solution and stored in −80° C. B7-H3 proteins were immobilized onto the CM5 sensor chip using Amine Coupling Kit. Both proteins were diluted to 10 ug/ml with 10 mM Sodium acetate, pH 5.0. […] A blank immobilized surface was used as a control
(§2) The data were analyzed by the 1:1 fitting model and default parameter setting for the rate constants using the Biacore T200 Evaluation Software, and the apparent association on rate constant (kon, ka), dissociation off rate constant (koff, kd) and equilibrium dissociation constant (KD=kd/ka) were calculated.

[2] = target: T1, human 2Ig-B7H3 (B7H3-2Ig-His); assay: SPR, Biacore T200, 2Ig-B7H3-His on CM5 chip, 1:1 fit; * beyond fitting limits; unconjugated 8H9, lot S219, Table 5 run
[3] = target: T1, human 2Ig-B7H3 (B7H3-2Ig-His); assay: SPR, Biacore T200, 2Ig-B7H3-His on CM5 chip, 1:1 fit; remark: listed apart in the source
Procedure: as §1
(§3) Binding Assays: [0143] 1. Antibodies were diluted in HBS-EP buffer (10 mM HEPES, 150 mM NaCl, 3 mM EDTA, 0.05% Surfactant P20, pH 7.4) at varying concentrations (25-50-100-200-400 nM) prior to analysis. […] 2. Samples (60 ul) were injected over the sensor surface at a flow rate of 30 ul/min over 2 min. [0145] 3. Following completion of the association phase, dissociation was monitored in HBS-EP buffer for 10 min at the same flow rate. […] 4. At the end of each cycle, the surface was regenerated using 10 mM NaOH at a flow rate of 50 ul/min over 2×15 sec.
as §2

[4] = target: T1, human 2Ig-B7H3 (B7H3-2Ig-His); assay: SPR, Biacore T200, 2Ig-B7H3-His on CM5 chip, 1:1 fit; unconjugated 8H9, lot P76501A, Table 5 run
[5] = target: T1, human 2Ig-B7H3 (B7H3-2Ig-His); assay: SPR, Biacore T200, 2Ig-B7H3-His on CM5 chip, 1:1 fit; * beyond fitting limits
Procedure: as §1, §3

[6] = target: T2, human 4Ig-B7H3 (B7H3-4Ig-His) (human, UniProt Q5ZPR3 29-466); assay: SPR, Biacore T200, 4Ig-B7H3-His on CM5 chip, 1:1 fit
T2 construct: Recombinant His-tagged protein immobilised on a CM5 chip; also called 41g-B7H3; human 4Ig-B7-H3 (dominant isoform); not shown: His tag
T2 sequence: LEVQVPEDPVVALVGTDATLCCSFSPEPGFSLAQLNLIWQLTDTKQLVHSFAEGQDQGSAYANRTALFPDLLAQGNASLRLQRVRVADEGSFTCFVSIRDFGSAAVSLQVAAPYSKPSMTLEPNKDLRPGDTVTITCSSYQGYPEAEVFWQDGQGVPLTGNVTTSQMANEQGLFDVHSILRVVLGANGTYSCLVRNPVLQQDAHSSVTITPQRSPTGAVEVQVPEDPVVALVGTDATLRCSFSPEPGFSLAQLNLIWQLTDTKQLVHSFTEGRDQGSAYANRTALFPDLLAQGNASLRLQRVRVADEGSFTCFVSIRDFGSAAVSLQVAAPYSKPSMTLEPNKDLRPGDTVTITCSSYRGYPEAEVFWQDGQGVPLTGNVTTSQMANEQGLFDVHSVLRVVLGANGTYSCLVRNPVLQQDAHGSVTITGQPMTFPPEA
Procedure: as §1, §3

[7] = target: T1, human 2Ig-B7H3 (B7H3-2Ig-His); assay: SPR, Biacore T200, 2Ig-B7H3-His on CM5 chip, 1:1 fit; unconjugated 8H9, lot PHB800, Table 3 run

B1: 8H9 antibody comprising a light chain according to SEQ ID No.: 2 and heavy chain according to SEQ ID No.: 1 (antibody, mouse IgG1, kappa, V domains shown)
VH: QVQLQQSGAELVKPGASVKLSCKASGYTFTNYDINWVRQRPEQGLEWIGWIFPGDGSTQYNEKFKGKATLTTDTSSSTAYMQLSRLTSEDSAVYFCARQTTATWFAYWGQGTLVTVSA
VL: DIVMTQSPATLSVTPGDRVSLSCRASQSISDYLHWYQQKSHESPRLLIKYASQSISGIPSRFSGSGSGSDFTLSINSVEPEDVGVYYCQNGHSFPLTFGAGTKLELKR
notes: Unconjugated mouse IgG1 mAb; also called m8H9; murine 8H9
B1 was tested. Which kon [1] did it give?
The kon was 53800 M⁻¹ s⁻¹ and 47100 M⁻¹ s⁻¹.

What about the “t ½” value [1] of the same binder?
The value was 72.9 days and 169 days.

And the koff [2]?
The koff was less than 1e-05 s⁻¹.

What about the Kd [3] of the same binder?
The Kd was 0.0123 nM.

What about the kon [3] of the same binder?
Its kon is 43400 M⁻¹ s⁻¹ and 46200 M⁻¹ s⁻¹ and 40900 M⁻¹ s⁻¹.

And the Kd [4]?
The Kd was less than 0.186 nM.

What about the koff [5] of the same binder?
Its koff is 1.1e-07 s⁻¹.

What about the Kd [6] of the same binder?
The Kd was 4.07 nM and 3.78 nM and 3.69 nM.

What about the koff [6] of the same binder?
The koff was 0.000102 s⁻¹ and 0.000101 s⁻¹ and 9.48e-05 s⁻¹.

And the kon [6]?
Its kon is 25200 M⁻¹ s⁻¹ and 26700 M⁻¹ s⁻¹ and 25700 M⁻¹ s⁻¹.

What about the “t ½” value [6] of the same binder?
The value was 1.88 h and 1.91 h and 2.03 h.

What about the Kd [7] of the same binder?
Its Kd is less than 0.23 nM.
